{"source": "paper PMC3474958", "about": "“pH-sensitive Self-associations of the N-terminal Domain of NBCe1-A Suggest a Compact Conformation under Acidic Intracellular Conditions” (Protein and Peptide Letters, 2012)", "key": {"[1]": {"target": "NtNBCe1-A (cytoplasmic N-terminal domain of the electrogenic Na/HCO3 cotransporter NBCe1-A, SLC4A4) (UniProt Q9Y6R1)", "sequence (Q9Y6R1 whole entry, the tested form may be a part)": "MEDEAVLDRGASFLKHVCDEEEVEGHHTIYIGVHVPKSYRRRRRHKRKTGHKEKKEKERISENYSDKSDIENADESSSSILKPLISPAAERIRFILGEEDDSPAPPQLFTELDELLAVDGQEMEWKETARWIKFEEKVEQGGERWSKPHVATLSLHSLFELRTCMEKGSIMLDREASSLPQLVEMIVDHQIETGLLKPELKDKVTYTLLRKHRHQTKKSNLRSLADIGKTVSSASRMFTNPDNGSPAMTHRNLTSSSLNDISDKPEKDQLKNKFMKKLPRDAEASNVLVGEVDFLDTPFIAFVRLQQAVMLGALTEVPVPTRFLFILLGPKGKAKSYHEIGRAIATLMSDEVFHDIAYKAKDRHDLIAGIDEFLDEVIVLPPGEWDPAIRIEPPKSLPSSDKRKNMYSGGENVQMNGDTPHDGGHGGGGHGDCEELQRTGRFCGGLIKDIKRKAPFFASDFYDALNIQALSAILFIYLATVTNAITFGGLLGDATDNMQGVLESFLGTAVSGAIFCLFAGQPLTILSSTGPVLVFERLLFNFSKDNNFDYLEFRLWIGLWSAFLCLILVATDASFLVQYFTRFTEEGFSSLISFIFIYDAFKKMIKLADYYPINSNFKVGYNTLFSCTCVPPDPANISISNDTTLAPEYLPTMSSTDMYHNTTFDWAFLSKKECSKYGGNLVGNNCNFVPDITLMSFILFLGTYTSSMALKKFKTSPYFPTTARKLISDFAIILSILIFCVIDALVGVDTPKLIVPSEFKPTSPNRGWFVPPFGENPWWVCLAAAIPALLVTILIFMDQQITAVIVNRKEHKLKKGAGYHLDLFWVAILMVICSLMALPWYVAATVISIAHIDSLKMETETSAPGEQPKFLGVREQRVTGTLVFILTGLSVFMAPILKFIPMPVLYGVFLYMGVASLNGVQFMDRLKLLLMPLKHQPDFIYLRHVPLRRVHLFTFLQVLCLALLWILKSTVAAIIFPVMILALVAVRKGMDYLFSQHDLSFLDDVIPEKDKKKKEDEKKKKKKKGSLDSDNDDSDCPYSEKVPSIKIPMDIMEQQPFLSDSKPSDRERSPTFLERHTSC", "assay": "Size-exclusion chromatography with multi-angle light scattering and refractive index detection (MALS-SEC)", "details": "pH 11.5; 150mM NaCl; 50mM Tris at every pH analysed"}, "[2]": {"target": "NtNBCe1-A (cytoplasmic N-terminal domain of the electrogenic Na/HCO3 cotransporter NBCe1-A, SLC4A4) (UniProt Q9Y6R1+Q9Y6R1)", "sequence (Q9Y6R1 whole entry, looked up, the tested form may be a part, one chain of several)": "as the sequence (Q9Y6R1 whole entry, the tested form may be a part) above", "assay": "Dynamic light scattering (DLS), batch mode", "details": "pH 7.4; 150 mM NaCl; 50mM Tris at every pH"}, "[3]": {"target": "NtNBCe1-A (cytoplasmic N-terminal domain of the electrogenic Na/HCO3 cotransporter NBCe1-A, SLC4A4) (UniProt Q9Y6R1)", "assay": "Dynamic light scattering (DLS), batch mode", "details": "pH slightly acidic (6.5 by the Figure 1 caption and Discussion); 150 mM NaCl; 50mM Tris at every pH"}, "[4]": {"target": "the molecule itself", "assay": "SEC-MALS; ~2 mg/ml (0.5 ml) on Superdex-200 HR 10/30; 50 mM Tris, 150 mM NaCl, 1 mM TCEP; neutral pH; monomer to dimer"}, "[5]": {"target": "the molecule itself", "assay": "SEC-MALS; neutral pH, 0 mM against 10 mM bisulfite"}}, "data": [{"molecule": "NtNBCe1-A (cytoplasmic N-terminal domain of the electrogenic Na/HCO3 cotransporter NBCe1-A, SLC4A4)", "values": [{"measurement": "average molar mass (MALS-SEC)", "setting": "[1]", "result": "42.6 kDa (theoretical monomer 40.6 kDa); monomer predominates"}, {"measurement": "average hydrodynamic radius (DLS)", "setting": "[2]", "result": "increase to 5.0 nm at neutral pH (theoretical 5.6 nm for pure tetramers), consistent with a small amount of dimer-dimer interactions"}, {"measurement": "average hydrodynamic radius (DLS)", "setting": "[3]", "result": "4.6 nm (theoretical 4.2 nm for pure dimers); monodisperse, Pd < 10%"}]}, {"molecule": "cytoplasmic, N-terminal domain of NBCe1-A (residues 1 to 362) (domain or fragment, human, UniProt Q9Y6R1-2 1-362, looked up, NBCe1-A, sodium-bicarbonate cotransporter variant 1A (SLC4 family), cytoplasmic N-terminal domain, residues 1 to 362; theoretical mass of the monomer 40.6 kDa, of the dimer 81.2 kDa; Exists in a concentration- and pH-dependent equilibrium of monomer, dimer and higher-order clusters; also called NtNBCe1-A; NtNBCe1) MSTENVEGKPSNLGERGRARSSTFLRVVQPMFNHSIFTSAVSPAAERIRFILGEEDDSPAPPQLFTELDELLAVDGQEMEWKETARWIKFEEKVEQGGERWSKPHVATLSLHSLFELRTCMEKGSIMLDREASSLPQLVEMIVDHQIETGLLKPELKDKVTYTLLRKHRHQTKKSNLRSLADIGKTVSSASRMFTNPDNGSPAMTHRNLTSSSLNDISDKPEKDQLKNKFMKKLPRDAEASNVLVGEVDFLDTPFIAFVRLQQAVMLGALTEVPVPTRFLFILLGPKGKAKSYHEIGRAIATLMSDEVFHDIAYKAKDRHDLIAGIDEFLDEVIVLPPGEWDPAIRIEPPKSLPSSDKRKNM", "values": [{"measurement": "stoichiometry N", "setting": "[4]", "result": 2}, {"measurement": "fold increase of high-order self-associations with bisulfite against none", "setting": "[5]", "result": "~2", "unit": "fold"}]}]}
